We go through four molecules from patent publication US20040132659A1 (UNIVERSITY OF SOUTHERN CALIFORNIA, published 2004).

Some results are limits rather than exact numbers.

Test [1] has as its target integrin αvβ5 on cells (human) (UniProt P06756). Kind of test: cell-based or functional assay.
The target in test [2] is integrin αvβ3 on cells (human, UniProt P06756 31-1048; P05106 27-788). Kind of test: cell-based or functional assay.
The target in test [3] is integrin receptors on the surface of MDA-MB-435 cells. Kind of test: cell-based or functional assay.
The target in test [4] is binding sites on human melanoma M24met cells. Kind of test: binding of CN to human melanoma M24met cells, high affinity site.
The target in test [5] is T1, platelet membrane glycoprotein (GP)IIb/IIIa on human platelets (human, UniProt P08514 32-1039; P05106 27-788).
T1 sequence (P08514 32-1039, chain 1 of 2): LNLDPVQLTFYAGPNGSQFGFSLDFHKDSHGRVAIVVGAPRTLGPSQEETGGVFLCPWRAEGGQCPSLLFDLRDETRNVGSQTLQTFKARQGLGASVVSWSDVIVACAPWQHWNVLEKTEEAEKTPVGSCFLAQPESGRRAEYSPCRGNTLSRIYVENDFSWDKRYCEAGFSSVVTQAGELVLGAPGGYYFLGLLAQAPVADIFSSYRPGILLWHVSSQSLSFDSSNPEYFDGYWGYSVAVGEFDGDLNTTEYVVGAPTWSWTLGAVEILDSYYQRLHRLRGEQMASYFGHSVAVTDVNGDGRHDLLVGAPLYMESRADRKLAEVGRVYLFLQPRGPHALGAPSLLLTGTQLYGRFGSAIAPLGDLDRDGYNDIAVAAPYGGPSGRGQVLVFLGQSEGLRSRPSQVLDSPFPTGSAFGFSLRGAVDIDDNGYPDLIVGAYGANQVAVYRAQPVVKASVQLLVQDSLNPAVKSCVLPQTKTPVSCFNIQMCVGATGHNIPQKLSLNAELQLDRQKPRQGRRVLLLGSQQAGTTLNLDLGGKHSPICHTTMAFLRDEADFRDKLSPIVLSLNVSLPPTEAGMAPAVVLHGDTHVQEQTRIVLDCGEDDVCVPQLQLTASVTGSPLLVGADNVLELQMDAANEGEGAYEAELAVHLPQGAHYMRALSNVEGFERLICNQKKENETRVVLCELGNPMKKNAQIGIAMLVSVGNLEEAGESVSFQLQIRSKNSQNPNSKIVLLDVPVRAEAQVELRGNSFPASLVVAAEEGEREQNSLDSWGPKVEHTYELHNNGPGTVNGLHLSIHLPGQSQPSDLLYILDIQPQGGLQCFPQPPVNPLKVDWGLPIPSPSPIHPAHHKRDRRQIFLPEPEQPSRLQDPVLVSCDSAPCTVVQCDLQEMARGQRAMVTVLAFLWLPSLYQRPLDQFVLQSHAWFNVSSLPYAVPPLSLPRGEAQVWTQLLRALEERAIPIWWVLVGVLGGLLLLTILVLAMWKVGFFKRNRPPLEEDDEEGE
T1 sequence (P05106 27-788, chain 2 of 2): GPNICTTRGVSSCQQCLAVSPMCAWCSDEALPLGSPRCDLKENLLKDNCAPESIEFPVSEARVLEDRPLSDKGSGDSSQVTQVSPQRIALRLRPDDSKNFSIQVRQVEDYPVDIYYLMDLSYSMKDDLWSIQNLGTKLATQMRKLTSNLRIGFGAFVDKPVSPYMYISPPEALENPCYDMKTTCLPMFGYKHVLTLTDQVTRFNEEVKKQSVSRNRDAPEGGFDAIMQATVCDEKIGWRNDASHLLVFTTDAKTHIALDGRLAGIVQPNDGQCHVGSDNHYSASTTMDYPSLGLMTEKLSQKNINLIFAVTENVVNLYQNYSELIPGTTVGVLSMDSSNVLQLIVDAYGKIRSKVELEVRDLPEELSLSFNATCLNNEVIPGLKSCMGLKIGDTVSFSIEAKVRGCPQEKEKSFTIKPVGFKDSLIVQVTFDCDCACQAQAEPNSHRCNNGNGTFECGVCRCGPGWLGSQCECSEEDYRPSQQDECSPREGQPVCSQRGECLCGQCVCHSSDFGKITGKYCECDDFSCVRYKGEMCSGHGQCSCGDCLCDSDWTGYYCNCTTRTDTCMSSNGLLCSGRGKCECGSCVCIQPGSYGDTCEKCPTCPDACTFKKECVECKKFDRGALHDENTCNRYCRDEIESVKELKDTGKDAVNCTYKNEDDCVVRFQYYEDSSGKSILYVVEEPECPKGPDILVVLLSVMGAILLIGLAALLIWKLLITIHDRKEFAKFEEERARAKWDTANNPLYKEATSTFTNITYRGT
Test [6] has as its target T1, platelet membrane glycoprotein …. In words: Scatchard analysis of CN binding to unactivated human platelets.
In test [7] the target is binding sites on human melanoma M24met cells. Kind of test: binding of CN to human melanoma M24met cells, lower affinity site.
The target in test [8] is integrin receptors on the surface of MDA-MB-435 cells. Kind of test: inhibition of binding of MDA-MB-435 cells to immobilized CN (0.1 µg/well); competitor: immobilized CN.

Chain of integrin αvβ3 on cells (P06756 31-1048, chain 1 of 2): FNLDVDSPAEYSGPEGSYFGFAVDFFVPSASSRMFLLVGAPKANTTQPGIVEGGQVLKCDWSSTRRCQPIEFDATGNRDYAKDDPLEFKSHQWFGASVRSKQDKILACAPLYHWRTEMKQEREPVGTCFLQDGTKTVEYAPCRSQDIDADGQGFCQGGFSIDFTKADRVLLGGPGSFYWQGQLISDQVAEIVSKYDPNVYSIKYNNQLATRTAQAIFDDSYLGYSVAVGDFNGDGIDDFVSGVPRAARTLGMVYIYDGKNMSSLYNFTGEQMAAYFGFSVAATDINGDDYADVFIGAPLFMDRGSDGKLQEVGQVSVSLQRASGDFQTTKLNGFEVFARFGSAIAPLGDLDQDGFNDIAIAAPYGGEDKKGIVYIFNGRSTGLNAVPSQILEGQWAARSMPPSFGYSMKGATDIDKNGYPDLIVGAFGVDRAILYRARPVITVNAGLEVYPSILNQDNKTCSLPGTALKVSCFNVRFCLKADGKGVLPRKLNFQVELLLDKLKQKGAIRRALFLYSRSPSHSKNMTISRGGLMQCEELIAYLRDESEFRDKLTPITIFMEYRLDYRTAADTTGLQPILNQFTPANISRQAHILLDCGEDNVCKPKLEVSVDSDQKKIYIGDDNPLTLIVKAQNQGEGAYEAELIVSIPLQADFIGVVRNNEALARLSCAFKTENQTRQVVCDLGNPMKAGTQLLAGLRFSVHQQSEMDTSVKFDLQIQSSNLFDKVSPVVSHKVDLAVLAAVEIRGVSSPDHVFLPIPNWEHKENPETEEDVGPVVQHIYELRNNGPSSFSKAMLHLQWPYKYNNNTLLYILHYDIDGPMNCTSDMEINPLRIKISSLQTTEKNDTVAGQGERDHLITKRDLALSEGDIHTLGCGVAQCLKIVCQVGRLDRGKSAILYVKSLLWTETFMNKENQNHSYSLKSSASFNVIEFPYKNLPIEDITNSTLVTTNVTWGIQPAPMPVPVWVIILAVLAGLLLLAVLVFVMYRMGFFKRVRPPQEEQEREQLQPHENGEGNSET
Chain of integrin αvβ3 on cells (P05106 27-788, chain 2 of 2): as the sequence (P05106 27-788, chain 2 of 2) above
Chain of integrin αvβ5 on cells (human) (P06756 31-1048, chain 1 of 2): as the sequence (P06756 31-1048, chain 1 of 2) above
Chain of integrin αvβ5 on cells (human) (P18084 24-799, chain 2 of 2, further chain): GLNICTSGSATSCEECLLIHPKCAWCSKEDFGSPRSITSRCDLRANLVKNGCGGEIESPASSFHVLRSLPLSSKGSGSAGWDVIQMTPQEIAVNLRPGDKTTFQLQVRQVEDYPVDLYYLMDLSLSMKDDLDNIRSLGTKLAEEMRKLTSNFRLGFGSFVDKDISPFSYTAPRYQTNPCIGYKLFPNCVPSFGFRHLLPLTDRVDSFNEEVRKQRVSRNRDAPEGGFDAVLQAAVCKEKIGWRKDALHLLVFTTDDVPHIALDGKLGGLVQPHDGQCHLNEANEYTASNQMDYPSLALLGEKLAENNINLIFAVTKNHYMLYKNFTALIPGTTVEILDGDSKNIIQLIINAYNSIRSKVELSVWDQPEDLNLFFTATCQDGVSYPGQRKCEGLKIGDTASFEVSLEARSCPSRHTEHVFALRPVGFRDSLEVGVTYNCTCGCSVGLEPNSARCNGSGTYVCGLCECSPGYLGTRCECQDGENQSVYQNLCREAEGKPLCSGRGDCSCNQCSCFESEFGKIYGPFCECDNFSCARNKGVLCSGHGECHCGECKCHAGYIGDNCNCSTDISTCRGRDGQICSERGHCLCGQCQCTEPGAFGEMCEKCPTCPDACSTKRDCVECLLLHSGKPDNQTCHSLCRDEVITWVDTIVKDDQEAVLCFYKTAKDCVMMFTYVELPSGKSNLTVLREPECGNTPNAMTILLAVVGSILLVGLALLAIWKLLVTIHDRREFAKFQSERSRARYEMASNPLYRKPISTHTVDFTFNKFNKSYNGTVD

For P1F6 monoclonal antibody, in test [1], the inhibition of adhesion of T24-β3 neg. cells to immobilized vitronectin stood at 80% and the inhibition of adhesion of T24 cells to immobilized vitronectin is under 40%.

In turn, 7E3 murine monoclonal antibody showed a maximum inhibition of adhesion of T24 cells to immobilized vitronectin in test [2] of under 40%.

B1: contortrostatin (ligand)
chain: DAPANPCCDAATCKLTTGSQCADGLCCDQCKFMKEGTVCRRARGDDLDDYCNGISAGCPRNPFHA
notes: also called CN; homodimeric disintegrin
As for B1, the IC50 for inhibition of adhesion of MDA-MB-435 cells to immobilized fibronectin in test [3] amounted to 18 nM. Also, the “IC50 for inhibition of adhesion of MDA-MB-435 cells to immobilized vitronectin” value in test [2] came out at 1.5 nM. Besides, the Kd (in general, the free concentration of one partner at which half of the binding sites on the other are occupied at equilibrium, for simple one-to-one binding) in test [4] was 1.1 nM; in test [6], 37 nM; in test [7], 41 nM. The results for the sites per cell (sites per cell) in test [4] and in test [7] were 96000 and 480000, respectively. Besides, the 50% inhibitory concentration (IC50) (in general, the concentration needed to halve the response being measured) in test [5] was 25 nM.

The molecule GRGDSP [RGD peptide GRGDSP] returned a concentration for half-maximal inhibition (IC50) in test [8] of 400000 nM.
